What all share (assay): cell-based or functional assay
Assay [1] concerns the target hamster CAIX on transduced skrc-59 cells (hamster).
Assay [2] deals with monkey CAIX on transduced skrc-59 cells (monkey).
In assay [3] the target is mouse CAIX on transduced skrc-59 cells (mouse, UniProt Q8VHB5 32-437).
Sequence of mouse CAIX on transduced skrc-59 cells (Q8VHB5 32-437): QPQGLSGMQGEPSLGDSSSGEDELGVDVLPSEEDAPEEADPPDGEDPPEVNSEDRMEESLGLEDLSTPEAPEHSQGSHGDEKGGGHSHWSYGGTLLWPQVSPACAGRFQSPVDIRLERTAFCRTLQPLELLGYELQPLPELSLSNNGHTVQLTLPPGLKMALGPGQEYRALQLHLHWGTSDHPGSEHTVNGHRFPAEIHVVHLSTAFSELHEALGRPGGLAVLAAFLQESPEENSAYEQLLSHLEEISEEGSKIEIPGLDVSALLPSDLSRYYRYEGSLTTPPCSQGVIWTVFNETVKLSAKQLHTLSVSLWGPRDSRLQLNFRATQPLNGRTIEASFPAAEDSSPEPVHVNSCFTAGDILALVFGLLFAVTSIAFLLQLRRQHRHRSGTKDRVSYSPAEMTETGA

B1: anti-CAIX (G36) CAR (scFv, V domains shown)
VH: EVQLVQSGGGVVQPGGSLRLSCAASGFPFSSYAMSWVRQAPGKGLEWVSAISANGGTTYYADSVKGRFTISRDNSKNTLYLQMNSLRAEDTAVYYCANNGNYRGAFDIWGQGTMVTVSS
VL: QSVLTQPPSVSGAPGQRVTISCTGSSSNIGAGFDVHWYQQLPGTAPKLLIYGNTNRPSGVPDRFSGSKSGTSASLAITGLQAEDETDYYCQSYDSRLSAWVFGGGTKLTVLG
Consider B1, for which the figures for the “killing assay of anti-CAIX (G36) CAR T cells” value in assay [1], in assay [2] and in assay [3] were 50%, 100% and 50%, respectively.

The values are drawn from patent US12577311 (Dana-Farber, dated 2026).
